In general, stoichiometry N refers to the number of molecules, sites or subunits per partner or assembly.

Assay [1] deals with recombinant C-terminal domain (CTD) of gingipain B (RgpB) (Porphyromonas gingivalis W83) (UniProt P95493). Description: cross-linking; data not shown: rCTD and r664i6H at 0.1 mg/ml exposed to 0.1, 0.05 and 0.01% glutaraldehyde.
For assay [2] the target is unchanged. Description: cross-linking; glutaraldehyde (0.01-0.1%) in PBS, 5 min at 37 °C, stopped with 100 mM Tris; protein at 1, 0.5 and 0.1 mg/ml; SDS-PAGE and Western blot. A general note: A western blot detects proteins with antibodies after separation by electrophoresis.
The target is the same in assay [3]. The assay is described as follows: SEC; Superdex 75 10/300 GL, 50 mM Tris, 150 mM NaCl, 2.5 mM CaCl2, 0.02% NaN3 pH 7.5; fractions analysed by Western blot with anti-rCTD antibodies.
The target in assay [4] is CTD released by factor Xa from full-length proRgpB662iXa produced in P. gingivalis (Porphyromonas gingivalis W83) (UniProt P95493). Description: cross-linking; glutaraldehyde (0.01-0.1%) in PBS, 5 min at 37 °C, stopped with 100 mM Tris; protein at 1, 0.5 and 0.1 mg/ml; SDS-PAGE and Western blot.

For the substance “recombinant C-terminal domain (CTD) of gingipain B (RgpB) (from UniProt P95493 664-736) (domain or fragment)”, the stoichiometry N in assay [1], in assay [2] and in assay [3] was 2 in each case.
In the case of “CTD released by factor Xa from full-length proRgpB662iXa produced in P. gingivalis (from UniProt P95493 663-736) (domain or fragment)”, the stoichiometry N in assay [4] amounted to 2.

For the origin of these results see PMC4804311.
